For 7 sequences, SH2 binding enrichment and phosphorylation enrichment results are on record in the supplement of paper PMC10065799, “High-throughput profiling of sequence recognition by tyrosine kinases and SH2 domains using bacterial peptide display” (eLife, 2023).

The target of series [1] is SHP2-C SH2. Kind of series: SH2 binding enrichment of the phosphorylated peptide, bacterial display (enrichment ratio); higher = better substrate or ligand; peptides without Tyr show the background.
Series [2] has as its target c-Src SH2. The description is as above.
Series [3] addresses Grb2 SH2 (UniProt P62993). The description is as above.
For series [4], the target named is Jak2 (UniProt O60674). Kind of series: phosphorylation enrichment, bacterial display (enrichment ratio); higher = better substrate or ligand; peptides without Tyr show the background.
Sequence of Jak2 (O60674 whole entry, looked up): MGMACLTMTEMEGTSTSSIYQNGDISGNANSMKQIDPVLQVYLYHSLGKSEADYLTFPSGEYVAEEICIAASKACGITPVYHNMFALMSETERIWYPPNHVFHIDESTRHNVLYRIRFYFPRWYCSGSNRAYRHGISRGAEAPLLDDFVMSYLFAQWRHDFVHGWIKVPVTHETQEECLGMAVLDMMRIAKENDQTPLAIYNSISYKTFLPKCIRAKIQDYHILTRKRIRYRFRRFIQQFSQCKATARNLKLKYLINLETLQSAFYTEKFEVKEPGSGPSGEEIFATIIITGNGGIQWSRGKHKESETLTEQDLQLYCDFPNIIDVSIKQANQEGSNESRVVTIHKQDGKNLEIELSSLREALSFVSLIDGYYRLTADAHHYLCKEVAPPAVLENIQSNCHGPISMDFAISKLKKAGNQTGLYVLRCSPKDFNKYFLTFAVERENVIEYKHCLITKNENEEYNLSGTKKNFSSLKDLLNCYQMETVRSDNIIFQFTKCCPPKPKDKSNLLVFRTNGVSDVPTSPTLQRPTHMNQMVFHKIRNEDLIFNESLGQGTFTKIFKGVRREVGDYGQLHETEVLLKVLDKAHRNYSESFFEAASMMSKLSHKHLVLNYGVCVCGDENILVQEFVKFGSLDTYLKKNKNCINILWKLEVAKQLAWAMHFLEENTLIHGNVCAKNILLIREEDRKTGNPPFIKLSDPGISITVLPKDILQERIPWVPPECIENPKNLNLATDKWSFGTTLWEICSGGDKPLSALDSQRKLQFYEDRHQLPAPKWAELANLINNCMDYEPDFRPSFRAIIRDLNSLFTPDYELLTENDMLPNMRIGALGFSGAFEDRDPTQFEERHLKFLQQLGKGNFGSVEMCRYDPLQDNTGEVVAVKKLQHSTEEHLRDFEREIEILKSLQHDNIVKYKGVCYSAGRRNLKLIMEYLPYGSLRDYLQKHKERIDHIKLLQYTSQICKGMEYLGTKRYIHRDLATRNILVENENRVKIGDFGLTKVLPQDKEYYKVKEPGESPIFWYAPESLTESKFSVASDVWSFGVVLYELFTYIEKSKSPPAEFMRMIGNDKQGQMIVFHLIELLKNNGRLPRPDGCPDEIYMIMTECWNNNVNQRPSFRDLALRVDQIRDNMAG
Series [5] has as its target MERTK (UniProt Q12866). The description is as above.
Series [6] deals with EPHB2 (UniProt P29323). Described as above.
Series [7] concerns c-Src. The series is described as above.
Series [8] addresses Fyn (UniProt P06241). The series is described as above.
Series [9] deals with Fes (UniProt P07332). The series is described as above.
Sequence of Fes (P07332 whole entry, looked up): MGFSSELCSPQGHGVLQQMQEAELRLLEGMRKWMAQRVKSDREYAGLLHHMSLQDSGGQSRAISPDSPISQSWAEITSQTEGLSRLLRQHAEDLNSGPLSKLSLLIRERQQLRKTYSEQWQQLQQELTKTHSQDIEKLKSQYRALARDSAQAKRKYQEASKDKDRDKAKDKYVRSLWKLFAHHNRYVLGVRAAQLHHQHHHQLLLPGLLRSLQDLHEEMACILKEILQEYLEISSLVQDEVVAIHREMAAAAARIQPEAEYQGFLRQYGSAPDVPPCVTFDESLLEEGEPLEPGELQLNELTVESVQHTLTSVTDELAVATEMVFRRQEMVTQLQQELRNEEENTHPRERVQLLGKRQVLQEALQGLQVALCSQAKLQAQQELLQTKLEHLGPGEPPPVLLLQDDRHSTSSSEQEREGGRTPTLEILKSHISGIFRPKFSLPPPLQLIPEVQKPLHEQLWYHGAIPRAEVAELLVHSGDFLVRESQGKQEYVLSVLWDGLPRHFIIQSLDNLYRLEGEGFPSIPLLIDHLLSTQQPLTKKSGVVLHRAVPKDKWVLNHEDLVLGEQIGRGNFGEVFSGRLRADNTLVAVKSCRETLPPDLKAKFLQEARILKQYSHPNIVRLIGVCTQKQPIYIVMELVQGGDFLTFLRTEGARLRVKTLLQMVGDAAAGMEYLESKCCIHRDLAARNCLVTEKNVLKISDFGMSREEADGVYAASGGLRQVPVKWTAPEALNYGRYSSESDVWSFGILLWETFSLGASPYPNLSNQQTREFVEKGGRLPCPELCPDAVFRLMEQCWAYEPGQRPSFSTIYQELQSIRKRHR
The target in series [10] is EPHB1 (UniProt P54762). The description is as above.
In series [11] the test system is Fer (mouse). The series is described as above.
Series [12] concerns AncSZ. The series is described as above.
Series [13] addresses FGFR3 (UniProt P22607). Described as above.
The target in series [14] is Hck (UniProt P08631). The description is as above.
Sequence of Hck (P08631 whole entry, looked up): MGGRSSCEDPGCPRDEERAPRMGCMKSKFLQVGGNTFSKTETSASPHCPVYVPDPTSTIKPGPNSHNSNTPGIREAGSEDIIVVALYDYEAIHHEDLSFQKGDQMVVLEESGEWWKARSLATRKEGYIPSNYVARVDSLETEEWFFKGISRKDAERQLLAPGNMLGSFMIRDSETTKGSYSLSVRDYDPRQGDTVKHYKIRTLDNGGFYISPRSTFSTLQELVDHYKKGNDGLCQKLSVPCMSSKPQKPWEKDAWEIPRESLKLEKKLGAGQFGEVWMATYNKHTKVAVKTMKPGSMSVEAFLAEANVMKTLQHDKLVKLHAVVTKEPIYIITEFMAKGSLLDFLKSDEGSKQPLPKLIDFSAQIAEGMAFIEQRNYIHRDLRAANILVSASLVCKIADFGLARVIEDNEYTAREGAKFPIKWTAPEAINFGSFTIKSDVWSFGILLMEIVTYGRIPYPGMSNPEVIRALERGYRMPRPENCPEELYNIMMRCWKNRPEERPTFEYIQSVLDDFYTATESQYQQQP
Series [15] deals with c-Abl (mouse). The description is as above.
The target of series [16] is FGFR1 (UniProt P11362). The description is as above.
Sequence of FGFR1 (P11362 whole entry, looked up, the tested form may be a part): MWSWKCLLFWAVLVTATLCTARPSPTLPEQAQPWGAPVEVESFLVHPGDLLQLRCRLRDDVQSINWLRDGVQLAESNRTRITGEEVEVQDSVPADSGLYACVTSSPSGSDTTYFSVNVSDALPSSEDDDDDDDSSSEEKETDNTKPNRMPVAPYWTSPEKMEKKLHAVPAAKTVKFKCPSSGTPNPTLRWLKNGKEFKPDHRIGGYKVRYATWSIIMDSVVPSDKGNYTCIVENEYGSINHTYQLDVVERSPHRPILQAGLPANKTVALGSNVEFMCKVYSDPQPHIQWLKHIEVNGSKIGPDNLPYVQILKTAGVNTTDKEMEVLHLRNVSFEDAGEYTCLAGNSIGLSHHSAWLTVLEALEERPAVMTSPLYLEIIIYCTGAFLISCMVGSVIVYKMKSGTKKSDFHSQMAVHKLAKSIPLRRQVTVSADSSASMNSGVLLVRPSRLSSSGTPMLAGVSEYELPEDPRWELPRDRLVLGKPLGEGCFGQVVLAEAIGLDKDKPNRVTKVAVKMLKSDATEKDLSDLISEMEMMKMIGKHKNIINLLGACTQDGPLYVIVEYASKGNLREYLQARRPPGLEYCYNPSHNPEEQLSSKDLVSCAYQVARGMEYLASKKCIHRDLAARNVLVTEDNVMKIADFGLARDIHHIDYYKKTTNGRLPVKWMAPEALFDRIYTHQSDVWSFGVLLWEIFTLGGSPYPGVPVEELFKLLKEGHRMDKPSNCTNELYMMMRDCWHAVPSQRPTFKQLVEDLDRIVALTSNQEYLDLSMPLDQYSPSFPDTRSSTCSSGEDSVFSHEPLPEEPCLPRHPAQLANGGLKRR
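For SH2 binding enrichment of the phosphorylated peptide, bacterial display in this document: peptide library displayed on the E. coli surface as eCPX fusions, selected cells deep-sequenced, score is each peptide's frequency after selection divided by its frequency in the input.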
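For phosphorylation enrichment, bacterial display in this document: 11-residue human phosphosite peptides and single-mutation variants displayed on the E. coli surface, counted by deep sequencing, each peptide's frequency after selection divided by its frequency in the unselected input library; frequency after pTyr selection over input frequency; kinase dosed for 20-30% of maximal phosphorylation in three min.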

Sequence of Grb2 SH2 (P62993 whole entry, looked up): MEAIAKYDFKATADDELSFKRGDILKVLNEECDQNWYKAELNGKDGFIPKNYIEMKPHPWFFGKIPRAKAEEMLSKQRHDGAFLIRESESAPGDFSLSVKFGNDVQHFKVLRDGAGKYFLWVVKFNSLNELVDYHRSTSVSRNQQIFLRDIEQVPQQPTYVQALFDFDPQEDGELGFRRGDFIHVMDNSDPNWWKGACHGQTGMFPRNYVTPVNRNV
Sequence of Fyn (P06241 whole entry, looked up): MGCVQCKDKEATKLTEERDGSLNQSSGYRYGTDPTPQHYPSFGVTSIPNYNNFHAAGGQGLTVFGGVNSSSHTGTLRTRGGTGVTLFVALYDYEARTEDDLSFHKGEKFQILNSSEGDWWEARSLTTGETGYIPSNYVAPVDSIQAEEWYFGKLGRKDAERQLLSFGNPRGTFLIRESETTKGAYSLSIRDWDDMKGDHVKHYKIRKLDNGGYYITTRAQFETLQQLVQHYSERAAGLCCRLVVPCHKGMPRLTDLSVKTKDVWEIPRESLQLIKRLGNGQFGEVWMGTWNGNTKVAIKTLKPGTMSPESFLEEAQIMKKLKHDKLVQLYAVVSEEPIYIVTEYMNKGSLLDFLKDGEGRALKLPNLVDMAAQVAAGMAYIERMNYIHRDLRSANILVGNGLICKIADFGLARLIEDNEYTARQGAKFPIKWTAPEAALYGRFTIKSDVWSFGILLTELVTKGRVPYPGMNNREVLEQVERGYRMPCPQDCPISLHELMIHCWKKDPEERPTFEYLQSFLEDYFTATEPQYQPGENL
Sequence of MERTK (Q12866 whole entry, looked up): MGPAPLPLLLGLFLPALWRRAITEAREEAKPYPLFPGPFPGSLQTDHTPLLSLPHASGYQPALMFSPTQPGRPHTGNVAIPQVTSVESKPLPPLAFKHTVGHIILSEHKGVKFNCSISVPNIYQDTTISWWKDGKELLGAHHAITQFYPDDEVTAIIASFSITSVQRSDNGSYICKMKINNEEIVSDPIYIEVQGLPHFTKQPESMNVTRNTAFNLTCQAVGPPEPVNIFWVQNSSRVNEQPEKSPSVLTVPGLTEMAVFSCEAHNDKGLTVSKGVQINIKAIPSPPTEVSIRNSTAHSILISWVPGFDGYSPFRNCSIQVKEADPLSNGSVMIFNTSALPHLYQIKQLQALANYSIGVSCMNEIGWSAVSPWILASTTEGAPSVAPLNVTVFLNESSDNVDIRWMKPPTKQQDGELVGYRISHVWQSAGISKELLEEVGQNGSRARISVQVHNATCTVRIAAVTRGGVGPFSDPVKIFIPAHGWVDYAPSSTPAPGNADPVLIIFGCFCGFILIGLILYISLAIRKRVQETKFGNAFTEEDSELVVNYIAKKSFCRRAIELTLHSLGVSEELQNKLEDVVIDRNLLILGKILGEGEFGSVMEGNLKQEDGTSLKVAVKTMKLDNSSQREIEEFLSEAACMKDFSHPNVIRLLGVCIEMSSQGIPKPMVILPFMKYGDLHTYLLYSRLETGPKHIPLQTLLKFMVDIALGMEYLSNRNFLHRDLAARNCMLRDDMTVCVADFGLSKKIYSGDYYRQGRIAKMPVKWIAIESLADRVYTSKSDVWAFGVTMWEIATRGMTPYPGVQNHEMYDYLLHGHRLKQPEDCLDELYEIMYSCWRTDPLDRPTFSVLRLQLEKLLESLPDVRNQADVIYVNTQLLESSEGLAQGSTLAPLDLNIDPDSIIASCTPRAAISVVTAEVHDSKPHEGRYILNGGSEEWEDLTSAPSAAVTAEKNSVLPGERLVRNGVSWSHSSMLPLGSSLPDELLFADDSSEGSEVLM

For the sequence GGPAEYLRRAS [PKLR_Y38_G37E], the SH2 binding enrichment in series [1] was 0.647; in series [2], 0.355; in series [3], 0.743. In addition, the phosphorylation enrichment turned out to be 0.508 in [4]; 0.361 in [5]; 0.334 in series [6]; 0.285 in [7]; 0.427 in series [8]; 0.76 in [9]. For the same sequence, the phosphorylation enrichment was 0.41 in series [10]; 0.367 in [11]; 0.954 in series [12]; 0.415 in series [13]; 0.374 in series [14]; 0.675 in series [15]. In addition, the phosphorylation enrichment in series [16] is 0.363.

In the case of GGTPLYRDRQG [AGXT_Y194_M195R], the SH2 binding enrichment is 0.78 in series [1], 0.389 in series [2] and 0.87 in series [3]. Moreover, the phosphorylation enrichment in series [4] stood at 0.4; in [5], 0.364; in [6] it was 0.435; in [7], 0.358; in series [8], 0.378; in [9], 0.499. Further, the phosphorylation enrichment in series [10] was 0.383; in series [11] it was 0.415; in series [12] it was 0.652; in [13], 0.423; in series [14], 0.398; in series [15], 0.5. The phosphorylation enrichment in series [16] was determined as 0.44.

Regarding GGYTWYCDGKK [PROS1_Y266_C265W], the SH2 binding enrichment is 0.524 in series [1], 0.455 in series [2] and 0.667 in series [3]. For the same sequence, the phosphorylation enrichment amounted to 1.47 in series [4]; 0.359 in [5]; 0.537 in series [6]; 0.399 in [7]; 0.362 in series [8]; 1.24 in series [9]. The phosphorylation enrichment in series [10] is 0.641; in series [11] it was 0.524; in series [12], 1.1; in series [13], 0.795; in series [14], 0.414; in series [15], 0.882. In addition, the phosphorylation enrichment in series [16] is 0.455.

Turning to GHGEEYPAAGA [NOTCH3_Y2221], the results for the SH2 binding enrichment in series [1], in [2] and in series [3] were 0.626, 0.384 and 0.888, respectively. Moreover, the phosphorylation enrichment in series [4] amounted to 0.549; in series [5], 0.379; in [6], 0.327; in series [7], 0.377; in series [8] it was 0.426; in series [9] it was 0.821. Also, the phosphorylation enrichment in [10] was determined as 0.41; in series [11], 0.433; in series [12], 0.682; in series [13] it was 0.719; in [14] it was 0.431; in [15], 0.469. The phosphorylation enrichment in series [16] amounted to 0.413.

Turning to GITVAYTIPKK [UBA5_Y372], the figures for the SH2 binding enrichment in series [1], in series [2] and in series [3] were 1.26, 0.835 and 0.71, respectively. Besides, the phosphorylation enrichment was 0.669 in [4]; 0.528 in series [5]; 0.331 in [6]; 0.396 in series [7]; 0.475 in [8]; 0.739 in [9]. Besides, the phosphorylation enrichment worked out at 0.441 in series [10]; 0.384 in series [11]; 0.763 in [12]; 0.534 in series [13]; 0.317 in [14]; 0.702 in series [15]. Moreover, the phosphorylation enrichment in [16] worked out at 0.337.

In the case of GKAFIYASHIV [ZNF573_Y229], the SH2 binding enrichment in series [1] amounted to 0.697; in series [2], 0.65; in series [3] it was 0.76. Moreover, the phosphorylation enrichment in series [4] was 0.869; in series [5], 0.408; in series [6], 0.42; in series [7], 1.21; in series [8], 0.666; in series [9], 1. The phosphorylation enrichment was 0.557 in series [10]; 1.16 in [11]; 0.802 in series [12]; 0.602 in series [13]; 0.604 in series [14]; 0.996 in [15]. In addition, the phosphorylation enrichment in series [16] came out at 0.427.

Take GKGGSYSQAAC [HLA-B_Y344]: the figures for the SH2 binding enrichment in series [1], in series [2] and in [3] were 0.881, 0.746 and 0.971, respectively. For the same sequence, the phosphorylation enrichment in series [4] came to 0.569; in series [5], 0.377; in [6], 0.365; in [7], 0.396; in series [8], 0.342; in series [9], 0.649. In addition, the phosphorylation enrichment in series [10] was found to be 0.352; in series [11] it was 0.408; in series [12], 0.452; in series [13] it was 0.444; in series [14], 0.419; in [15] it was 0.625. Also, the phosphorylation enrichment in [16] was 0.385.
